Columns and labels:
[1] = target: BACE1Arg (Lys-to-Arg mutant form of BACE1), P56817
[2] = target: affinity purified BACE1 (BACE1-myc, wild type), P56817
affinity purified BACE1 (BACE1-myc, wild type), P56817, sequence (P56817 22-501): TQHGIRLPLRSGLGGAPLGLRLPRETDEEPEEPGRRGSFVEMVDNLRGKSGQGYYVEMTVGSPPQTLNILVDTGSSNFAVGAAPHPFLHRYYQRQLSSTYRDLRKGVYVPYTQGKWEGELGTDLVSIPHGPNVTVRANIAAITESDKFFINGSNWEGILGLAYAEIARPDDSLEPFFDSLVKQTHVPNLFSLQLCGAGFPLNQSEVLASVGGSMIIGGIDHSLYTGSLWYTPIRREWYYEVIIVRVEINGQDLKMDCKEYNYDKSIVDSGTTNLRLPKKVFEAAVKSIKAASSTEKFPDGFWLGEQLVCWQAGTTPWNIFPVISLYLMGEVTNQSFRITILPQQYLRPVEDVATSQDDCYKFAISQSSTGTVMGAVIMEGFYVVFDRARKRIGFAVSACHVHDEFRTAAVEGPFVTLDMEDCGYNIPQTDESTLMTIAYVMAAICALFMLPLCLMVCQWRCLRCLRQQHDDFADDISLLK

BACE1Arg (Lys-to-Arg mutant form of BACE1), P56817, sequence (P56817 other isoform, or with tags, fused parts or gaps mutant): as the sequence (P56817 22-501) above, with K105R, K254R, K258R, K264R, K278R, K279R, K286R counted along it

Row | Protein | in vitro acetylation of BACE1 with [3H]acetylCoA, scintillation counting [1] | acetylation of BACE1 with non-radiolabeled acetylCoA, Western blot with anti-acetylated lysine [2] | acetyltransferase activity of ERGIC fractions (acceptor: affinity purified BACE1) [2] | average cpm/assay ([3H]acetyl incorporated into BACE1) [2] | in vitro acetylation of BACE1 with [3H]acetylCoA, scintillation counting [2]
1 | ATase1 (acetyltransferase 1) with a myc tag at the C-terminus (protein) MAPYHIRKYQESDRKSVVGLLSRGMAEHAPATFRRLLKLPRTLILLLGGALALLLVSGSWILALVFSLSLLPALWFLAKKPWTRYVDIALRTDMSDITKSYLSECGSCFWVGESEEKVVGTVGALPVDDPTLREKRLQLFHLSVDNEHRGQGIAKALVRTVLQFARDQGYSEVVLDTSNIQLSAMGLYQSLGFKKTGQSFFHVWARLVDLHTVHFIYHLPSAQAGRL | purified ATase1 was able to acetylate BACE1WT but not BACE1Arg | clearly indicate that ATase1 can acetylate BACE1 | ERGIC fractions from ATase1-expressing cells displayed increased (~2-fold) acetyltransferase activity | The average cpm/assay for ATase1 was 1737±486 | purified ATase1 was able to acetylate BACE1WT but not BACE1Arg
2 | ATase2 (acetyltransferase 2) with a myc tag at the C-terminus (protein) MAPCHIRKYQESDRQWVVGLLSRGMAEHAPATFRQLLKLPRTLILLLGGPLALLLVSGSWLLALVFSISLFPALWFLAKKPWTEYVDMTLCTDMSDITKSYLSERGSCFWVAESEEKVVGMVGALPVDDPTLREKRLQLFHLFVDSEHRRQGIAKALVRTVLQFARDQGYSEVILDTGTIQLSAMALYQSMGFKKTGQSFFCVWARLVALHTVHFIYHLPSSKVGSL | – | there was a marked increase in the acetylation of both the immature and partially-mature forms of BACE1 | – | – | –
